Measurements reported in the RNAGym collection of RNA variant scans (doi:10.7554/elife.80360).

B1: Hammerhead Ribozyme (parent)
chain: ACCGGAUGUGCUUUCCGGUCUGAUGAGUCCGUGAGGACGAAACAG

Variants of: B1
Experiment: self-cleavage, relative activity (ratio to wild type); higher = more cleavage; co-transcriptional

Compared with ACCGUAUGUGCUUUGCGGUCUGAUGAGUCCGUGAGGACGAAACAG [G5U C15G], UCCUGAUGUGCUUUCCGGUCUGAUGAGUCCGUGAGGACGAAACAG [A1U G4U] is lower in self-cleavage: 1.15 for the first, 0.309 for the second.

Compared with ACCGGAUGUGCUUUCCGGUCUGCUGAGUCCGUGAGGACUAAACAG [A23C G39U], ACCGGAUGUGCUUUCCGGUCUGGUGAGUCCGUGAGGACGAAAGAG [A23G C43G] is lower in self-cleavage: 0.371 for the first, 0.35 for the second.

First: ACCGGAUGUGCUUUCCGGUCUGAUGAGUCCGUGAGGCCCAAACAG [A37C G39C]
Second: ACCGGAUGUGCUUUCCGGUCUGAUGUGUCCGUAAGGACGAAACAG [A26U G33A]
The self-cleavage of the first is lower: 0.316 for the first, 0.961 for the second.

Going from ACCGGAUGUGCUUUCCGGUCUGAUGAGUCCGUGAGGUUGAAACAG [A37U C38U] to ACCGGAUAUGCAUUCCGGUCUGAUGAGUCCGUGAGGACGAAACAG [G8A U12A], the self-cleavage rises from 0.714 to 1.09.

First: ACCAGAUGUGCUUUCCGGUCUGAUGAGUCCGUGGGGACGAAACAG [G4A A34G]
Second: AUCGGAUGUGCUUCCCGGUCUGAUGAGUCCGUGAGGACGAAACAG [C2U U14C]
The self-cleavage of the first is lower: 0.378 for the first, 0.474 for the second.

Going from ACCGGAUGUGCUUUCCGGUCUGAUGAGUCGGUGAGGACGAAAAAG [C30G C43A] to ACCGGAUGUGCUUUCCGGUCGGAUGAGUCCGUGACGACGAAACAG [U21G G35C], the self-cleavage rises from 0.287 to 0.306.

Compared with ACCGGAUGUGCUUUCCGUUCUGAUGAGUCCGUGAGGACGAAACAA [G18U G45A], ACCGGAUGUGCUUUCCGGUCUGAUGAGUCCGGGAGGACGAAGCAG [U32G A42G] is lower in self-cleavage: 0.379 for the first, 0.357 for the second.

Compared with ACGUGAUGUGCUUUCCGGUCUGAUGAGUCCGUGAGGACGAAACAG [C3G G4U], ACGCGAUGUGCUUUCCGGUCUGAUGAGUCCGUGAGGACGAAACAG [C3G G4C] is lower in self-cleavage: 0.322 for the first, 0.289 for the second.

First: ACCGGAUGUGCUUUCCGGUCUGAUGAGUCCGAGAUGACGAAACAG [U32A G35U]
Second: ACCGGAUGUGCAUACCGGUCUGAUGAGUCCGUGAGGACGAAACAG [U12A U14A]
The self-cleavage of the first is higher: 0.985 for the first, 0.798 for the second.

Compared with ACCGGUUGUGCUUUCCGGUCUAAUGAGUCCGUGAGGACGAAACAG [A6U G22A], ACCGGAUGUGGUUUCCCGUCUGAUGAGUCCGUGAGGACGAAACAG [C11G G17C] is lower in self-cleavage: 0.289 for the first, 0.273 for the second.

First: ACCGGAUGUGCUCUCCGGUCUGACGAGUCCGUGAGGACGAAACAG [U13C U24C]
Second: ACCGGAUGUGCUUUCCGGUCUGAUGAGUCCGGGCGGACGAAACAG [U32G A34C]
The self-cleavage of the first is higher: 1.31 for the first, 0.805 for the second.

Compared with ACCGGAUGUGCUUUCCGGUCUGAUGAGUUCGUGAGUACGAAACAG [C29U G36U], ACCGGAUGUGCUUUCCGGGCUGAUGAGUCCGGGAGGACGAAACAG [U19G U32G] is lower in self-cleavage: 0.483 for the first, 0.371 for the second.

First: ACCGGAUGUGCUUUCCGGUCUGAUGAUUCCGUGAGGACCAAACAG [G27U G39C]
Second: ACCGGAUGUGCUUUCCGGUCUGAUGAGUACGUGAGGACGAAACAA [C29A G45A]
The self-cleavage of the first is lower: 0.314 for the first, 0.372 for the second.

First: AGCGGAUGUGCCUUCCGGUCUGAUGAGUCCGUGAGGACGAAACAG [C2G U12C]
Second: ACCAGAUGUGCUUUCCGGUCUGAUGAGUCCGUGAGUACGAAACAG [G4A G36U]
The self-cleavage of the first is lower: 0.342 for the first, 0.37 for the second.

First: ACCGGAUGUGCUUUCCGGUCUGACGAGUCCGUGAGGACGAAGCAG [U24C A42G]
Second: ACCGGAUGUGCUUUCCGGUCUGAUGAGUCCGUGAGGACGAAACAA [G45A]
The self-cleavage of the first is lower: 0.228 for the first, 0.842 for the second.

First: ACCGGAUGUGCUUUCCGGUCUGAUGAAUCCGUCAGGACGAAACAG [G27A G33C]
Second: ACCGGAUGUGCUUUCCGGUCUGAUGAGUCCGUGAGGUCGAAACAC [A37U G45C]
The self-cleavage of the first is higher: 0.675 for the first, 0.363 for the second.

Compared with ACCGGAUGUGGUUUUCGGUCUGAUGAGUCCGUGAGGACGAAACAG [C11G C15U], ACAGGAUGUGCUUUCCGGUCUGAUGAGUCCGUGAGGAUGAAACAG [C3A C38U] is lower in self-cleavage: 0.986 for the first, 0.515 for the second.

First: ACCGGAUGUGCUUCCCGGUCUGAUGAGUCCGUAAGGACGAAACAG [U14C G33A]
Second: ACCGGAUGUGCUUUCCGGUCUGAUGAGUCCGUGAGAGCGAAACAG [G36A A37G]
The self-cleavage of the first is higher: 0.754 for the first, 0.556 for the second.

Going from ACCGGAUGUGCUUUCCGGUCUGAUCAGUCCGUGAGGAGGAAACAG [G25C C38G] to ACCGGAUGUGCUUUCCGGUCUGAUCAGUCCCUGAGGACGAAACAG [G25C G31C], the self-cleavage rises from 0.304 to 0.339.

Compared with ACCGGAUGUGGUUUCCGGUUUGAUGAGUCCGUGAGGACGAAACAG [C11G C20U], ACCGGAUGUGCUUUCCGGUCUGAUAAGUCCGUGGGGACGAAACAG [G25A A34G] is lower in self-cleavage: 0.695 for the first, 0.3 for the second.

First: ACCGGAUGUGCUUUCCGCUCUGAUGAGUCCGUGAGGUCGAAACAG [G18C A37U]
Second: AGCGGAUGUGCUUUCCGGUGUGAUGAGUCCGUGAGGACGAAACAG [C2G C20G]
The self-cleavage of the first is higher: 0.483 for the first, 0.297 for the second.

Going from ACCGGAUGUGCUUUCCGGUCUGAUGGGUCCGUGAGGACGAAGCAG [A26G A42G] to AGCGGAUGUGCUUUCCGGUCUGAUGAGUCCCUGAGGACGAAACAG [C2G G31C], the self-cleavage rises from 0.225 to 0.376.

Compared with ACCGGAUGUGCUUUUCGGUCUGAUGCGUCCGUGAGGACGAAACAG [C15U A26C], ACCGGAUGUGCUUUCCGGGCUGAUGAGUCCGUGAGUACGAAACAG [U19G G36U] is lower in self-cleavage: 0.424 for the first, 0.301 for the second.

Going from ACCGGAUGUGCUUUCCGGGCUGAUGAGUCCGUGAGCACGAAACAG [U19G G36C] to UCCGGGUGUGCUUUCCGGUCUGAUGAGUCCGUGAGGACGAAACAG [A1U A6G], the self-cleavage rises from 0.351 to 0.459.

Compared with ACCGGAUGUGCUUUCCGGUCUGAUGAGUUCGUGAGGAGGAAACAG [C29U C38G], ACCGGAUGUGGUUUCCGGUCUGAUGAGUCCGUGAGGAUGAAACAG [C11G C38U] is higher in self-cleavage: 0.559 for the first, 1.09 for the second.

First: ACCGGAUGUGCUUUCCGGUCUGAGGACUCCGUGAGGACGAAACAG [U24G G27C]
Second: ACCGGAUGAGCUUUCCGGUCUGAUGAGUCCGUGAGGACGUAACAG [U9A A40U]
The self-cleavage of the first is higher: 0.692 for the first, 0.367 for the second.

Compared with AUCGGAUGUGCUUUCCGGUAUGAUGAGUCCGUGAGGACGAAACAG [C2U C20A], ACCGGAUGUGCUUUCCGGUCUGGUGCGUCCGUGAGGACGAAACAG [A23G A26C] is lower in self-cleavage: 0.63 for the first, 0.263 for the second.

First: ACCGGAUGUGCUGUCCGGUGUGAUGAGUCCGUGAGGACGAAACAG [U13G C20G]
Second: ACCGGAUGUGCUUUCCGGUCUGAUGAGUGCGUGAGAACGAAACAG [C29G G36A]
The self-cleavage of the first is lower: 0.244 for the first, 0.66 for the second.

ACCGGGUGUGCUUUCCGGUCUGAUGAGUCCGUGAGGACGAGACAG [A6G A41G] gave a self-cleavage of 0.266.
